In a protein production outcome set (Wang et al. 2014):

Test: label from the status in PepcDB records
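Also: failed if final PepcDB status was selected cloned or expressed and not failed if soluble or beyond.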

| Sequence | protein production |
| --- | --- |
| MRIFFLIFLLAYVGGNVYIFIRTLQMLSGFSLAMKILLSVIYWLVAFSLVIAMLTRHIDMPVILSKSMFHIGSVWLVFTLYMIFALLIADVTKIFVPSLNHGFYYALGATCCLLLYGYYNYRHPQVNKIDVSLDKPIEGNGINIVAVSDVHLGYGTGKAMLKEYVDMINAQHPDLILIGGDLIDNSLTPLYKENMAEELAQLKAPLGIYMVPGNHEYISGIDESVRFLKDTPIQLLRDSVVTLPNGVQIIGRDDRSNRSRHSLPTLLKQADRSKPIILLDHQPYNLAKTDSLGIDLQFSGHTHHGQIWPISWVTDRIYEQSHGYRKWSQSHIYVSSGLSLWGPPFRIGTNSDMAVFHLNQMAK | not failed |
| MPPFLPLQVIKGVGPKRAVILAEAGIRSIADLYDCFPRRYLDRTTIKKIGALRDGETVTVVGSVTGTRFEGGGRGGSRFKAQITDGSGVLELTWFRGVHYFSKTIRSGELVAAHGRVTFFGRTPGMQHPDFDKLGGDDESGDGQRDDELYKTGAIIPIYPTTEAMKQAGLNSAALRRIVHRAFREHPLRITEYLSPEIIAANNLMPIGEAYRQLHFPDSAEQLERARYRMKWSELFFAQLFFALRRTEERRHLTSVRFERSGEKTASLHERLPFTMTSAQKQAVREIYHDLKSGRQMNRLLQGDVGSGKTLVAQFAMTLAVDNGLQAAFMAPTEILAFQHYAGLKNSLEPLGIRVALLTGRQKKKEREEKLARLERGEIDIAVGTHAIIEAGVQFRRLGLVIIDEQHRFGVLQRKALQEKAENPHVLLMTATPIPRTLTMGIYGDLDVSIIAEMPAGRKPIQTRLCCEAEKPELYRLLRKQIAEGRQAYIVYPLVEESEKIDLKAATESYEQLRREVFPELRLGLIHGQLPAAEKEAVMAEFRSGRLDILVGTTVIEVGVDVPNATIMVIEHAERFGISQLHQLRGRVGRGEHASSCFLVYTKLTGDAKDRLQAMAATGDGFRLSEIDLQIRGAGNMLGREQSGAASGLRIADLLTDGDIMRAARAAAFELIRRDETLTHPENALIRDYYMTHFRKRISLADVG | failed |
| MPRWLIQHSPNTLTPEEKSHLAQQITQAYVGFGLPAFYVQVHFIEQPAGTSFIGGEQHPNFVALTIYHLARTMTSDEQRQGFLKRIDAFLTPMFEPKGIDWEYFVTEAPRDLWKINGLAPPAAGSEEEKVWVRENRPVRF | not failed |
| MGKMRTPQEVPARLDALAEAARKLKFDVREPVDAGAGAIGAVHSLDYLRFLREAHARWKQLPDDWGDEVVSNVFVREPNALRGVLAQAARYLADGSCPVGPHTWQSAYWAAQCAISGAQTLLDGERHAYALCRPPGHHARRDAAGGFCYLNNAAIAAQMLTQRYKRVAILDTDMHHGQGIQEIFYERSDVLYVSIHGDPENFYPVVAGFENERGAGEGYGYNVNLPMPHGSPEPVFFDRLQQAQRAIELFQPDALVLSLGFDVFEKDPQAMVAVSANGFERLGQAIGAFKLPTLIVQEGGYYIEGLEDNAERFFAGLAKALEHHHHHH | failed |
| MNNPSETSKPSMESGDGNTGTQTNGLDFQKQPVPVGGAISTAQAQAFLGHLHQVQLAGTSLQAAAQSLNVQSKSNEESGDSQQPSQPSQQPSVQAAIPQTQLMLAGGQITGLTLTPAQQQLLLQQAQAQAQLLAAAVQQHSASQQHSAAGATISASAATPMTQIPLSQPIQIAQDLQQLQQLQQQNLNLQQFVLVHPTTNLQPAQFIISQTPQGQQGLLQAQNLLTQLPQQSQANLLQSQPSITLTSQPATPTRTIAATPIQTLPQSQSTPKRIDTPSLEEPSDLEELEQFAKTFKQRRIKLGFTQGDVGLAMGKLYGNDFSQTTISRFEALNLSFKNMCKLKPLLEKWLNDAENLSSDSSLSSPSALNSPGIEGLSRRRKKRTSIETNIRVALEKSFLENQKPTSEEITMIADQLNMEKEVIRVWFCNRRQKEKRINPPSSGGTSSSPIKAIFPSPTSLVATTPSLVTSSAATTLTVSPVLPLTSAAVTNLSVTGTSDTTSNNTATVISTAPPASSAVTSPSLSPSPSASASTSEASSASETSTTQTTSTPLSSPLGTSQVMVTASGLQTAAAAALQGAAQLPANASLAAMAAAAGLNPSLMAPSQFAAGGALLSLNPGTLSGALSPALMSNSTLATIQALASGGSLPITSLDATGNLVFANAGGAPNIVTAPLFLNPQNLSLLTSNPVSLVSAAAASAGNSAPVASLHATSTSAESIQNSLFTVASASGAASTTTTASKAQ | failed |
| MLTFIVVNYNGEKYLKECLNSIINQTYRKLRVLVIDNGSTDGSRDILRNFEDYYSRFEVIRNEENLGFAKAANQGIEMANTKFVALVNNDAFLERNWAEEMLKAADDLRAGIFASKILFEDGRINSAGHAIHRGLAVMERGFLEKDEGQFDEPCYVAGACAAAAMYRRSLFEDVGLFDEDYFMYNEDVDLSLRALIRGWKILYVPTAIAYHLHSASTGFLSDFSVYYNSRNWVWSVVKNVPRDLLLREFPYFILRNFSSMLFFCLRGNFAILKSKIDAIRELRKFLEKRREVQQKVRFKAVEDYIEGLGFGKALKVARLAGVLR | failed |
| MIPPGAQTPCPAGTRGDEATQLRRFVASVPNRISIGAARGAAPLSALLGLLLLGGAWTLRDHPGPGHEAAALCLLAAAALLMCLACLQRNARSAPFLVLGQGRLRARSLSAPLDLLEVADLRLEDGVWFSAIVLELHGKALPAPSTRPLDPFAARAVSECRDGPRVRLLSPGWRLNGRNLSLLEAAEVIDLYLDIARAQARLRQLGEIPPSASSSLPTPRIFP | failed |
| MKTINIVAGGPKNLIPDLTGYTDEHTLWIGVDKGTVTLLDAGIIPVEAFGDFDSITEQERRRIEKAAPALHVYQAEKDQTDLDLALDWALEKQPDIIQIFGITGGRADHFLGNIQLLYKGVKTNIKIRLIDKQNHIQMFPPGEYDIEKDENKRYISFIPFSEDIHELTLTGFKYPLNNCHITLGSTLCISNELIHSRGTFSFAKGILIMIRSTDLEHHHHHH | not failed |
| MGVVERAIAPSVLAALADTPVVVVNGARQVGKTTLVARLDYPGSSEVVSLDDVANRDAARDDPRAFVSRPVDTLVIDEAQLEPGLFRAIKAEVDRDRRPGRFLLTGSARLLSAPDMADALVGRVEIIELWPFSQGERAGIADGFVDALFTAPRELIHGSDMRRADLVDRIATGGFPDIVARSPSRRRAWFDNYLTTATQSVIREISPIERLAEMPRVLRLCAARTGAELNVSALANDLSIPARTTAGYLALLEAAFLIHRVPAWSTNLSRKVIRRPKLVVSDSGLACHLLGVTGATLDRPGRPLGPLLETFVANEIRKQLTWSTERPSLWHFRDRGGAEVDLVLEHPDGRVCGIEVKATSTPRAEDLRGLRYLAERLDDRFQFGVLLTAAPEATPFGPTLAALPVSTLWAG | failed |
| MILYVFLFFVGLLLLYLGAEGLIQGASSIALQYGIRPVILGLTVVALGTSMPEYLVNVFALISGESPLAIGNIIGSNISNVALILGACAVVLPLAVTPEVLRREYPVMLGVMVLFYLCALDGVIGARDGVLMVVLLSGLAAYVFYDAHRTTRGTVLESMEGELDAADPDLSTLAKAVYVIGGMGGLTLGAHLMVDNALAISDVLNIDHVVIGLTVVAIGTSLPELAASMVGTLKQEVDMTVGNVIGSNLLNVLFVVGTLAIAEPITVDPETIRLHFPVMLGFCALLVPLTWWDQKITRVEGAFMVIAFLGFMVFLYV | failed |
| MGLIARLRRWYHLWVWRLRYWWYDTPSGVCAQHWAQGLGVLVFIVQLVRVWVAAALPAPHGAPAQAVYWWVWQLAIAVVAAYVSAALRPKPESVKPQQAQVPTVQDGQAVKHHFGTVWVGDEFILAWKMQGAIPIKTKGAGC | failed |
| MAFSTDDTLWREFLQVWPLERLREMTLAEYTTAGDKDCFVYWLEFRLVDYGSIAGGSAFKFAIFSRKETGAREGDTSLAYDDRYGWYRRFGTSPEEAFQTIRGHVVAVAEAARDGRLDEIDNSPLGAAYRWKIAFHYQPLRNPSTPCVYVRKPLLHFLGLSAADTTTPQSELYQALARLRQADESIFVFSERLWKDWVADTPFVVKLSEGAIKHGYLPVNLISAPFPETMYGGKTPNEAADVAHFRTDTGLEFDTDLRVSSPGSARLRHRLGGYFEDIGAAAGDLITLTQDGDGTYLLSSKLAVHAIGPTASAATITARASVKEAAAVRPPLNQILFGPPGTGKTYEAIEKALEILDPSFLLQLGDDESNERRRALKRRYDELAKEGLVQFVTFHQSFSYENFVEGLSASSDPDTKQVRYEVEDGVFKELCESARTRLVRRSDDAPLELSGRRIWKLSLGDSITEGHIFEECMEKGLALMGFGNNADFSQCQSREDIQKMFAASGEPLSLGAYPITAIKTFVCQMKLGDLIVVSEGNLKFRAIGEITGDYQLLPRDSDTYSQARPVRWLRGYKPALPYGALMENRFSQMTVYELRAGSIDHDKFRELLKSECIATGADRPHVLIIDEINRGNVSRIFGELITLIEPSKRSGAAEALEVLLPYSKDPFSVPDNVYLIGTMNTADRSLAGLDIALRRRFDFVEMAPRPDKLTGVKVAEIDISAVLETMNRRIEVLLDREHRLGHAYFMSLENSNDLSRLSNIFRQQIIPLLQEYFFEDWQRIAWILNDHRKDERFRFIVPAPYSVDSLFGDTGQVAQDSKAWRMNEEAFHKPQSYLGIVGDGKV | failed |
| MDFQHRPGGKTGSGGVASSSESNRDRRERLRQLALETIDINKDPYFMKNHLGSYECKLCLTLHNNEGSYLAHTQGKKHQTNLARRAAKEAKEAPAQPAPEKVKVEVKKFVKIGRPGYKVTKQRDSEMGQQSLLFQIDYPEIAEGIMPRHRFMSAYEQRIEPPDRRWQYLLMAAEPYETIAFKVPSREIDKAEGKFWTHWNRETKQFFLQFHFKMEKPPAPPSLPAGPPGVKRPPPPLMNGLPPRPPLPESLPPPPPGGLPLPPMPPTGPAPSGPPGPPQLPPPAPGVHPPAPVVHPPASGVHPPAPGVHPPAPGVHPPAPGVHPPTSGVHPPAPGVHPPAPGVHPPAPGVHPPAPGVHPPAPGVHPPPSAGVHPQAPGVHPAAPAVHPQAPGVHPPAPGMHPQAPGVHPQPPGVHPSAPGVHPQPPGVHPSNPGVHPPTPMPPMLRPPLPSEGPGNIPPPPPTN | failed |
| MDFSKAFGLVYKALDYRSLRQDMIASNIANVDTPFYRPKDLDFESVLAKKKAEIFENQSSKVLPLAHTNPRHLDFENSAKDGASLFFRDGHLAKNDGNSVDLDIETSEMGKNSTMYLALSSALKKYRGVINYAIDSSKNL | failed |
| MSSCCGPASPASSGPRTRRPRTATAQGDRHLFFAVYTIVPTDAYFGDAAVCFPPARPHMPIRRSLTIALFLLFPALGSGCQSTAPSTSSPSATEDAPAPLIVISIDGLRWDYLDRHEAPALSRIAEDGAHVDHLTPVFPTKTFPNHYSAVTGLYPSRHGIIANTMYDPAMDASFSLSDREAVMNPDWWGGEPIWVTAEQQGRTAATYFWPGSEAPVRGTRPTEWFEYDGSVPGTTRVDQALQWLDRPADTRPDLITLYFSRVDTKGHRHGPRSDSVATALREVDGFIQRLLDGLAARGLADAVNVMVTGDHGMSPTSRDRTIVLDDYIDPDDVRLTARNPVAMMEPRPGIPADSVVTALDQAPHLSAYRRGTLPDTLHFEGHRRIPSVIAVADDRWSIRTQAWMDENPDWTGGGTHGYDPRSENMHTLLAARGPGFRRNTTVDQLSLLHLYELMSALLDVEPAPNDGRLEAARPLLLPASARTAE | failed |
| MNYSHPISLKTLVQEDDIGVNAPIIHQSVIARLTAGLYPLYQSKKIPFEPLPETMLTEGYSSPVPDVLLYDHQTEEAKVIIEVCQNSGLKHDTSKIVKLIEDNAYGILEGFVFNYKTQQWLRYRLGDGGVATNSSFSEVLQVDLNTFV | not failed |
| MLYFEDLRPGQLFLSAEHTLSEQEIIAFARQFDPQPFHTDPEAARQTFFNGLAASGWHTSSLSMRLVAESELGRAANGLIGMQIDKMRWPQPSRPGDTLQVEVEVLDKRRSSSQPGFGVVKVSWTTRNQRGETAMQLECAIWLQCRSKAEAAAPELAGAK | failed |
